Four molecules from publication PMC4374775, “New Insights on the Mechanism of the K^+-Independent Activity of Crenarchaeota Pyruvate Kinases” (PLoS ONE, 2015) can be followed below.

Where two headings read alike, the source gives them in different places.

Series [1] has as its target T1, Thermofilum pendens pyruvate kinase (TpPK) (Thermofilum pendens, UniProt A1RX09).
T1 construct: gene Tpen_0330; full-length with N-terminal His6 tag and TEV site (23 additional residues); homotetramer
As to the kind of experiment: dead-end inhibition kinetics, LDH/NADH-coupled assay, […]°C, pH […]. Type of series: biochemical.

The target in series [2] is Thermofilum pendens pyruvate kinase (Thermofilum pendens). As to the kind of experiment: native gel or EMSA; BN-PAGE, overnight at 4°C, 150 μg of TpPK; RMPK as molecular weight marker; native band of approximately 200 kDa.
Substrate in the series “purified protein”: C=C(OP(=O)(O)O)C(=O)O
In words: purified protein. Particulars: Mg2+ active site; random-order binding with ADP-Mg.

Substrate in series [3]: Nc1ncnc2c1ncn2[C@@H]1O[C@H](COP(=O)(O)OP(=O)(O)O)[C@@H](O)[C@H]1O
As to the kind of experiment: initial velocity kinetics (Km), LDH/NADH-coupled assay. The series is classed as biochemical, Thermofilum pendens. Particulars: Mg2+ active site; random-order binding with PEP.

For `Nc1ncnc2c1ncn2[C@@H]1O[C@H](COP(=O)(O)O)[C@@H](O)[C@H]1O` [AMP], the Ki in series [1] (read-out: K i (AMP)) is 35 ± 1.2 mM.

As to `O=C(O)C(=O)O` [oxalate], in series [1] (read-out: K i (oxalate)), the Ki amounted to 0.05 ± 0.002 mM.

Turning to “Thermofilum pendens pyruvate kinase (enzyme)”, in series [2], the stoichiometry N (in general, a count of units in the complex or per binding partner) worked out at 4.

B1: Thermofilum pendens pyruvate kinase (TpPK) (Thermofilum pendens Hrk 5) (protein)
chain: MAKVKLVATLGPSSWSEETMKRMVAEGVNAFRLNFSHVDYARFEELAKQVRRLETPLRPLTLIADLQGPVIRLGEFAPFQVRPGDRVTFTLSSKTEEKYAVPVPNGVFFEIVREGDEVLVEGGRLAFRIVDAGPEKAVGEALLEGEVKPRKTVTVRGKDIPLPTITEKDLRDIEFSVKAGFDAIALSFVRSSSDVQRLRDILFDYGAEDVKIIAKIETKSAVEDLDSILQKSDAALVARGDLANFYGLEEIYSIQRYIISRARRFGKPSIVATQLLESMISNPLPTRSEVVDVITAVRMGADALLLAGETAAGKYPVESVYWLRRIVEEAEREPLEVEDVAPDKSDLYESIAKGVVSLAEVISGKIIAFSEKGNTARRISKFRPKAGLIVFTNDPATARYVNMIYGVRVVYDPSLSKADQNLFSKMLSKALEHNLVNLGDLVVFTSGRRRGSTDLVSVERVKSE
notes: full-length with N-terminal His6 tag and TEV site (23 additional residues); homotetramer
Turning to B1, the figures for the Km (in the series “purified protein”; in series [3]) were 380 ± 30 µM and 160 ± 10 µM, respectively.
